Results on 1 molecule are retold here after US20120010178A1, “METHODS AND COMPOUNDS FOR TREATMENT OF NEURODEGENERATIVE DISORDERS” (PRESIDENT AND FELLOWS OF HARVARD COLLEGE, priority 2008, published 2012).

The assay has as its system SMN. The experiment in a line: SMN levels in mouse (ES-cell derived) motor neurons. Format: cell-based. Particulars: mouse motor neurons. The protocol: Mouse HB9-GFP derived SMN deficient motor neuron cells were incubated for 2 days with compounds from libraries and collections.
Motor neurons were produced from mouse ES-cells expressing cherry fluorescent protein (CFP) under the control of the motor neuron-selective Hb9 promoter, as previously described (Wichterle et al., 2002).
GFP expressing motor neurons were derived from mouse ES cells as described below. After growing for approximately 1 week, motor neurons were treated with allsterpaullone. Two days after treatment with allsterpaullone, cells were fixed and stained with SMN antibody or GFP antibody.
mES cells were differentiated into motor neurons according to methods adapted from Wichterle et. al., Cell (2002), 110:385-397. Briefly, mES cells were grown to 70-80% confluence in 10-cm plates (Falcon) in ES cell medium. To form embryoid bodies, cells were washed once with PBS to eliminate mES medium and then incubated with 1 ml of 0.25% trypsin (GIBCO) for 5-10 min at 21-25° C. (RT). Cells were then resuspended in 10 ml of DM1 medium (DMEM-F12, GIBCO), 10% knockout serum (GIBCO), penicillin, streptomycin, glutamine (GIBCO) and 2-mercaptoethanol (GIBCO), counted and plated at a concentration of 200,000 cells per ml in Petri dishes (Falcon). […] The cells were counted and plated on poly-ornithine coated 96-well plates (VWR).

B1: BMP4: bone morphogenetic protein 4, BMP/TGFβ ligand (protein, UniProt P12644 293-408, looked up)
Bone morphogenetic protein 4: SPKHHSQRARKKNKNCRRHSLYVDFSDVGWNDWIVAPPGYQAFYCHGDCPFPLADHLNSTNHAIVQTLVNSVNSSIPKACCVPTELSAISMLYLDEYDKVVLKNYQEMVVEGCGCR
For the molecule B1, the “SMN levels in motor neurons (in words)” value is reported as “increase SMN levels”.
